Data reported in the nanobody polyreactivity screen of Harvey et al. (2022).

Assay: yeast display, Sf9 membrane polyspecificity reagent, FACS + sequencing; frameworks hold sequencing errors
Summary of the method: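 Sorting gates, low and high (top ~1%), were placed on anti-HA fluorescence to track expression and on streptavidin fluorescence to track reagent binding. A clone's polyreactivity label is taken from the gate it came out of. The reagent was 10% biotinylated, detergent-solubilized Sf9 membrane, applied for 1 hour at 4 °C to galactose-induced yeast display cells.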
With “QVQLVESGGGLVQAGGSLRLSCAASGITFSYNAMGWYRQAPGKERELVAAISSNSDSTYYADSVKGRFTISRDNAKNTVYLQMISLKPEDTAVYYCADDTPDAPDYSGFYYWGQGTQVTVSS” the “polyreactivity (PSR sort gate)” value was “low polyreactivity”. For “QVQLVESGGGLVQAGGSLRLSCAASGITFSYYAMGWYRKAARKERELVAAINGGGSRTYYADSVKGRFTISRDNAKNTVYLQMNSLKPEETAVYYCAAYSGQARGYDYWGQGTQVTVSS”, the “polyreactivity (PSR sort gate)” value was “high polyreactivity”. With “QVQLVESGGGLVQAGGSLRLSCAASGITFSYYAMGWYRPAPGKERELVAAINSGGGSTYYADSVKGRFTISRDNAKNTVYLQMNSLKPEDTAVYYCAARYRSRYDYYYDRDYWGQGTQVTVSS” the “polyreactivity (PSR sort gate)” value was “low polyreactivity”. In the case of “QVQLVESGGGLVQAGGSLRLSCAASGITFTFYAMGWYRQAPGKERELVAAISRRGGSTYYADSVKGRFTISRDNAKNTVYLQMNSLKPEDTAVYYCAARGYRPMDYWGQGTQVTVSS”, the “polyreactivity (PSR sort gate)” value is reported as “high polyreactivity”. With “QVQLVESGGGLVQAGGSLRLSCAASGITFTRYTMGWYRPAPGKERELVAAITGGSTYYADSVKGRFTISRDNAKNTVYLQMNSLKPEDTAVYYCAAAYESPYIQPLDYWGQGTQVTVSS” the “polyreactivity (PSR sort gate)” value was “high polyreactivity”. In the case of “QVQLVESGGGLVQAGGSLRLSCAASGITFTSYAMGWYRQAPGKERELVAAISSSGGSTYYADSVKGRFTISRDNAKNTVYLQMNRLKPEDTAVFYCNARPRSRSPRVEYDYWGQGTQVNVSS”, the “polyreactivity (PSR sort gate)” value is reported as “high polyreactivity”. For “QVQLVESGGGLVQAGGSLRLSCAASGITFTSYAMGWYRQAPGKERELVASIDSDDSTNYADSVKGRFTISRDNAKNTVYLQMNSLKPEDTAVYYCAASDNDDWYYVYHYDYWGQGTQVTVSS”, the “polyreactivity (PSR sort gate)” value was “low polyreactivity”. With “QVQLVESGGGLVQAGGSLRLSCAASGITFTSYVMGWYRQAPGKERELVAAIRWSGGRTYYADSVKGRFTISRDNAKNTVYLQMNSLKPEDTAVYYCNADYAYNSYGYRFYYWGQGTQVTVSS” the “polyreactivity (PSR sort gate)” value was “high polyreactivity”. For “QVQLVESGGGLVQAGGSLRLSCAASGITFTVNAMGWYRQAPGKERELVAAISNDGSTYYADSVKGRFTISRDNAKNTVYLQMNSLKPEDTAVYYCSADTWDDFGPYGYDYWGQGTQVTVSS”, the “polyreactivity (PSR sort gate)” value was “low polyreactivity”. In the case of “QVQLVESGGGLVQAGGSLRLSCAASGITFTVYAMGWYRQARGKERELVAAINSGSSTNYADSVKGRFTISRDNAKNTVFLQMNSLKPEDTAVYYCAASYRKLPDKKRYGYWGQGTQVTVSS”, the “polyreactivity (PSR sort gate)” value is reported as “high polyreactivity”. For “QVQLVESGGGLVQAGGSLRLSCAASGITFTVYTMGWYRQAPGKERELVAAITTSGTTTYYADSVKGRFTISRDNAKNTVYLQINSLKPEDTAVYYCAARQVWGEGVKSYYWGQGTQVTVSS”, the “polyreactivity (PSR sort gate)” value was “high polyreactivity”. With “QVQLVESGGGLVQAGGSLRLSCAASGITFTWYGMGWYRQAPGKERELVAAISLTGARTYYADSVKGRFTISRDNAKNTVYLQMNSLKPEDTAVYYCNARPQGRGGTYLPRYDYWGQGTQVTVSS” the “polyreactivity (PSR sort gate)” value was “high polyreactivity”. For “QVQLVESGGGLVQAGGSLRLSCAASGITFVANAMGWYRQAPGKERELVAGITQTGGSTYYADSVKGRFTISRDNAKNTVYLQMNSLKPEDTAVYYCAATYRRLRYGKLYYYWGQGTQVTVSS”, the “polyreactivity (PSR sort gate)” value was “high polyreactivity”. For “QVQLVESGGGLVQAGGSLRLSCAASGITFVAYAMGWYRQAPGKERELVAAISYNGGSTNYADSVKGRFTISRDNAKNTVYLQMNSLKPEDTAVYYCAADLAEFYPRFNYWGQGTQVTVSS”, the “polyreactivity (PSR sort gate)” value was “low polyreactivity”. With “QVQLVESGGGLVQAGGSLRLSCAASGITFVDYAMGWYRQAPGKEREFVAAISWSGGSTYYADSVKGRFTISRDNAKNTVYLQMNSLKPEDTAVYYCAARPKFGTAHRYYYWGQGTQVTVSS” the “polyreactivity (PSR sort gate)” value was “high polyreactivity”. With “QVQLVESGGGLVQAGGSLRLSCAASGITFVGYAMGWYRQAPGKERELVAVINTSSSTYYADSVKGRFTISRDNAKNTVYLQLNSLKPEATAVYYCGVRGRYYYRRPQISYEYWGQGTQVTVSS” the “polyreactivity (PSR sort gate)” value was “low polyreactivity”. For “QVQLVESGGGLVQAGGSLRLSCAASGITFVHNVMGWYRQAPGKDRELVAAINSGGRTYYADSVKGRFTISRDNAKKTVYLQMNSLKPEDSAVYYCAALGDKRGGGHYWGQGTQVTVSS”, the “polyreactivity (PSR sort gate)” value was “high polyreactivity”. With “QVQLVESGGGLVQAGGSLRLSCAASGITFVHYAMGWYRQAPGKERELVAAISSGGGSTYYADSVKGRFTLSRDHAKNTGNLQMHSLNPEDTAVDNCAAYVLPYGEYDYWGQGTQVTVSS” the “polyreactivity (PSR sort gate)” value was “low polyreactivity”. With “QVQLVESGGGLVQAGGSLRLSCAASGITFVHYVMGWYRQAPGKERELVAVITKGGARTSYADSVKGRFTISRDNAKNTVYLQMNSLKPEDTAVYYCAAREVYPLFTKYYYWGQGTQVTVSS” the “polyreactivity (PSR sort gate)” value was “high polyreactivity”. For “QVQLVESGGGLVQAGGSLRLSCAASGITFVPNAMGWYRQAPGKERELVARIDNGVSTNYADSVKGRFTISRDNAKNTVYLQMNSLKPEDTAVYYCAVGYWDSRYRYDWPNSDYWGQGTQVTVSS”, the “polyreactivity (PSR sort gate)” value was “low polyreactivity”. With “QVQLVESGGGLVQAGGSLRLSCAASGITFVPYAMGWDRQAPGKERELVAAISSSGGSTYYADSVKGRFTISRDNAKNTVYLQMNSLKPEDTAVYYCNVRTHSYIGMDYWGQGTQVTVSS” the “polyreactivity (PSR sort gate)” value was “low polyreactivity”. For “QVQLVESGGGLVQAGGSLRLSCAASGITFVPYVMGWYRQAPGKERELVAAITVRGSRTYYADSVKGRFTISRDNAKNTVYLQMNSLKPEDTAVYYCAAGRYLSRTFFTYYYWGQGTQVTVSS”, the “polyreactivity (PSR sort gate)” value was “high polyreactivity”. For “QVQLVESGGGLVQAGGSLRLSCAASGITFVQNVMGWYRQAPGKEREFVAGINNSGGSTYYADSVKGRFTISRDNAKNTVYLQMNSLKPEDTAVYYCAAVYDRYTYAFVYRYRRMYYWGQGTQVTVSS”, the “polyreactivity (PSR sort gate)” value was “low polyreactivity”. For “QVQLVESGGGLVQAGGSLRLSCAASGITFVRNAMGWYRQAPGKEREFVAAISGSGVSTYADSVKGRFTISRDNAKNTVYLQMNSLKQEDTAVYYCNTDEWYHFYHGSHKYDYWGQGTQVTVSS”, the “polyreactivity (PSR sort gate)” value was “low polyreactivity”. For “QVQLVESGGGLVQAGGSLRLSCAASGITFVRNAMGWYRQAPGKEREFVAAISGSGVSTYADSVKGRFTISRDNAKNTVYLQMNSLNPEDTAVYYCARDFPWSYAWYDYWGQGTQVTVSS”, the “polyreactivity (PSR sort gate)” value was “low polyreactivity”. For “QVQLVESGGGLVQAGGSLRLSCAASGITFVRNAMGWYRQAPGKERELVAAISSGGSTYYADSVKGRFTISRDNAKNTVYLQINSLKPEDTAVYYCNAQIYGRQYRYRWHYYWGQGTQVTVSS”, the “polyreactivity (PSR sort gate)” value was “high polyreactivity”. In the case of “QVQLVESGGGLVQAGGSLRLSCAASGITFVRNTMGWYRQAPGKERELVAAIDSGGNTNADSVKGRFTISRDNAKNTVYLQMNSLTPEDTAVYYCAVDGGEFSSYGYWGQGTQVTVSW”, the “polyreactivity (PSR sort gate)” value is reported as “low polyreactivity”. In the case of “QVQLVESGGGLVQAGGSLRLSCAASGITFVRNTMGWYRQAPGKERELVAAISKSGDNTYYADSVKGRFTISRDNAKNTVYLQMNSLKPEDTAVYYCNKAYRKFYYGYDYWGQGTQVTVSS”, the “polyreactivity (PSR sort gate)” value is reported as “high polyreactivity”. In the case of “QVQLVESGGGLVQAGGSLRLSCAASGITFVTYAMGWYRKAPGKERELVAAISRSGGRTYYADSVKGRFTISRDNAKNTVYLQMNSLKPEDTAVYYCAAERKNKYDYWGQGTQVTVSS”, the “polyreactivity (PSR sort gate)” value is reported as “high polyreactivity”. For “QVQLVESGGGLVQAGGSLRLSCAASGITFVYYTMGWYRQAPGKERELVAAISSTGGSTYYADSVKGRFTISRDNAKNTVYLQMNSLKPEDTAVYYCAADARTFGGYGYWGQGTQVTVAS”, the “polyreactivity (PSR sort gate)” value was “high polyreactivity”. For “QVQLVESGGGLVQAGGSLRLSCAASGITFVYYVMGWYRQAPGKERELVAAINAGGGSTYYADSVKGRFTISRDNAKNTVYLQMNSLKPEDTAVYYCNARVRVRLGRNWSSYYYWGQGTQVTVSS”, the “polyreactivity (PSR sort gate)” value was “high polyreactivity”. In the case of “QVQLVESGGGLVQAGGSLRLSCAASGITFWFYSKGWYRQSPGNERELVAAISRSGSTNYADSVKGRFTISRDNAKNTVYLQMNSLKPEDTAVYYCAASTYKYKLLYYQYDYWGQGTQVTVSS”, the “polyreactivity (PSR sort gate)” value is reported as “high polyreactivity”. With “QVQLVESGGGLVQAGGSLRLSCAASGITFWGYAMGWYRQAPGKEREFVARINWSGGRTYYAESVKGRFTNSRDNAKNTVYLQMNSLKPEDTAVYYCAATSLIYGYRTYDYWGQGTQVTVSS” the “polyreactivity (PSR sort gate)” value was “high polyreactivity”. With “QVQLVESGGGLVQAGGSLRLSCAASGITFWKYAMGWYRQAPGKERELVAVITKSGGSTYYADSVKGRFTISRDNAKNTVYLQMNSLKPEDTAVYYCAASSETYYYGYEYWGQGTQVTVSS” the “polyreactivity (PSR sort gate)” value was “high polyreactivity”. In the case of “QVQLVESGGGLVQAGGSLRLSCAASGITFWKYTMGWYIPAPGKERELVASIRIGGSTYYADSVKGRFTISRDNAKNTVYLQMNSLKPEDTAVYYCAAKGIYGLQGSPRSGYYYWGQGTQVTVSS”, the “polyreactivity (PSR sort gate)” value is reported as “high polyreactivity”. With “QVQLVESGGGLVQAGGSLRLSCAASGITFWNYAMGWYRQAPGKERELVAAISYSGGSTYYADSVKGRFTISRDNAKNTVYLQMNSLKPEDTAVYYCAATLPTNWVRYEYWGQGTQVTVSS” the “polyreactivity (PSR sort gate)” value was “low polyreactivity”. With “QVQLVESGGGLVQAGGSLRLSCAASGITFWSNSMGWYRQAPGKERELVATITSSGGDNTNYADSVKGRFTISRDNAKNSVYLQMNSLKPEDTAVYYCNKEGQQSYRWRMDYWGQGTQVTVSS” the “polyreactivity (PSR sort gate)” value was “low polyreactivity”. With “QVQLVESGGGLVQAGGSLRLSCAASGITFWSYAMGWYRQAPGKERELVAAITWRGGSTYYADSVKGRFTISRDNAKNTVYLQMNSLKPEDTAVYYCNAVYRRDGYNYWGQGTQVTVSS” the “polyreactivity (PSR sort gate)” value was “high polyreactivity”. In the case of “QVQLVESGGGLVQAGGSLRLSCAASGITFWYYAMGWYRQAPGKERELVAVISRGGSTYYADSVKGRFTISRDNAKNTVYLQMNSLKPEDTAVYYCAARQRWYTYTRQEYDYWGQGTQVTVSS”, the “polyreactivity (PSR sort gate)” value is reported as “high polyreactivity”. In the case of “QVQLVESGGGLVQAGGSLRLSCAASGITFYDNDMGWYRQAPGKERELVAGITGTTVGTYYADSVKGRFTISRDYAKNTVYLQMNSLKPEDTAVYYCAATSLAGYYQFDYWGQGTQVTVSS”, the “polyreactivity (PSR sort gate)” value is reported as “low polyreactivity”. For “QVQLVESGGGLVQAGGSLRLSCAASGITFYDYAMGWYRQAPWKERELVAAISFSGSRTYYADSVKGRFTISRDNAKNTVYLQMNSLKPEDTAVYYCAASQARNYKIYDYWGQGTQVTVSS”, the “polyreactivity (PSR sort gate)” value was “high polyreactivity”. In the case of “QVQLVESGGGLVQAGGSLRLSCAASGITFYDYAMGWYRQEPGKERELVAAINSSGVRTYYADSVKGRFTISRDNAKNTVYLQMNSLKPEDTAVYYCAAVRRGPYISRSDMDYYWGQGTQVTVSS”, the “polyreactivity (PSR sort gate)” value is reported as “high polyreactivity”. In the case of “QVQLVESGGGLVQAGGSLRLSCAASGITFYGNAMGWYRQAPGKERELVAAISSSGGTTYYADSVKGRFTISRDNAKNTVYLQMNSLKPEDTAVYYCNALHPVVYYGTYFNLRRYDYWGQGTQVTVSS”, the “polyreactivity (PSR sort gate)” value is reported as “low polyreactivity”.
